Experimental data taken from the DeepSol protein solubility set.

Assay: soluble on expression in E. coli; label from the status in PepcDB or PDB records
With “MRSLISSLDLTREEVEEILKYAKEFKEGKEETIKASAVLFFSEPSTRTRLSFEKAARELGIETYLVSGSESSTVKGESFFDTLKTFEGLGFDYVVFRVPFVFFPYKEIVKSLNLRLVNAGDGTHQHPSQGLIDFFTIKEHFGEVKDLRVLYVGDIKHSRVFRSGAPLLNMFGAKIGVCGPKTLIPRDVEVFKVDVFDDVDKGIDWADVVIWLRLQKERQKENYIPSESSYFKQFGLTKERFEKVKLYMHPGPVNRNVDIDHELVYTEKSLIQEQVKNGIPVRKAIYKFLWT” the “soluble on expression in E. coli” value was “soluble”. For “MRSLPIFPDLRAFLDWCARKGDLSRIAEPVSLRHETTAVASKILRGGGPVLRFESLRDTSATMPLVANLFGTRERVAAGLGLGLEQIPELGAFLAALRAPAPVAGMRDALSRWPQLQAALNTRAKIVRSAEAQEVVHEGAAVDLGMIPVPTCWPGDAGPLVTWPVVLTRPHGTSAEETLHYNAGVYRAQVIGRDRLIMRWLAHRGGAGHCRSWMRAGEPMPVALALGCDPALLLAAALPLPEQVSELTFSGVLRGARTPLVAGRTVPLMVPATAEIVVEGWVHPGDMAPEGPFGDHTGYYNSVEDFPVLRVSAITHRKDPLYLTTHTGRPPDEPSVIGEVFNDLAMPVFRQQIPEVKDLYLPPAACSYRIAIVSIDKRYPGQARRVMMALWGMLAQFSYTKMVIVVDEDINPRDWDDVAWAMATRMDPSRDVVLLEKTPMDYLDFASPEPGLAGKIGIDATNKIGPETHREWGEVMTQSPEAEAFADRLIAKLRIGALEHHHHHH”, the “soluble on expression in E. coli” value was “not soluble”. In the case of “MRTILIDWFSDAVREYISRKEAVHLAASLVDRALPMFNIDKMRFQLVGITSMRIAVKYEEIFPPILSNTRHSFDGAILYWKVRLHRRNAHTILDRIMLCTENELGVCRQLLTQGFATSYPSLA”, the “soluble on expression in E. coli” value is reported as “not soluble”. For “MRTRNMQDFEGPLPDLLESALTWVKQNAPTQNVYDSSGHMRKESVYPLPAVRELIANALVHRDLSPNSDGKWVEIRLCDDRLVISNPGGLRGVSVKQLESATLSKNAVNPRLYDIAKRVRTEGAGIQEVLRQTCQALLAKPQLIDTGVQFTAILYGASVFSEAELEWLRSIGGDGLTAVEKHLLVGLRKGESWHLSRILNEFSPITVAEAEKLMHGLKKRGFIESDNKTFTLGAHSENQAPRVEKEETTLAKITKNAPTIAHALELKPEQSFEELLRTTGLSQGQLRFALDKLQAVGLVVREGGWGVHGTTYHWSAQT”, the “soluble on expression in E. coli” value was “not soluble”. With “MRVAVLGAGAWGTALAVLLASKGVPTRLWARRKAQAEALKAMRENRDYLPGVALPAYLYPTHDPEEALEGAELAVLAVPSKALRETVAGLPPAPWYVSATKGLFYGEEGVRTPAEVVEALTQRPVVALSGPNHAEEVARFLPTASVAAGPEDLARRVQALFSGPTFRVYTSRDRRGVELGGAVKNVLALAAGMVDGLRLGDNAKAALLTRGLKEMVRFGTALGGEEATFYGLAGLGDLLATAYSLHSRNRMAGESLVRGVDREALEARGVVEGLYAVKAMVAWGKEQGVELPVAEAVHRVAHEGLDPLAALKALMAREPKEE” the “soluble on expression in E. coli” value was “soluble”. For “MRVAVTGTPGTGKTTATGRLDTALDVAHLNDLVGTEGLYDGVDADRGSKIVDVDAVRDHFAGREDVLVESHLAHRLDDLDAVVVLRCAPETLATRLQDRGDSPEKAAENADSEALAIILSEAVRGHGADAVYEIDTTDRSPDAVAAAIQAVLDGDREPSAGTVDYTDYV”, the “soluble on expression in E. coli” value was “not soluble”. In the case of “MRVELDFRSVKMQVSQYLYQNVQSIWGDCISHPFVQGIGRGTLERDKFRFYIIQDYLFLLEYAKVFALGVVKACDEAVMREFSNAIQDILNNEMSIHNHYIRGLQITQKELQNARPTLANKSYTSYMLAEGFKGSIKEVAAAVLSCGWSYLVIAQNLSQIPNALEHAFYGHWIKGYSSKEFQACVNWNINLLDSLTLTSSKQEIEKLKDIFITTSEYEYLFWDMAYQSLEHHHHHH”, the “soluble on expression in E. coli” value is reported as “not soluble”. For “MRVIEVKNLTFSYDGKHNVLEDVSFYVEKGDFLGIVGPNGAGKSTLLKLILGFLKPKSGEIYLFGKKIEEFKDWKRVGYVPQRLSVEHAFPGTVKELLSSVCEDKKEIDYLVEFLKLKNIVNKQFTKLSGGQQQRVLLAMALSYNPELILLDEPTVGLDVHAINHFMSILLDLNMNHKKSIVMISHDIGTLLKHASKILCLNKKVCYFGEPEGAIEYIEEAFGLRGFLHGVS”, the “soluble on expression in E. coli” value was “soluble”. With “MRVIVFFDLPVITPENRHNYSVFRKYLIKSGFIMQQKSVYSKLVLNLTNRDSIVKSIEKNKPPEGLVEVLTVTEKQYAKMEIIIGESKTEYLNTDERLVVLLEHHHHHH” the “soluble on expression in E. coli” value was “soluble”. For “MRVKIRRELLEYLLELAKSFYPREVAGFLRMKDGVFEEVLIVPKGFFGESSVYFDLTLMPHDESIKGTFHSHPSPFPYPSEGDLMFFSKFGGIHIIAAFPYDEDSVKAFDSEGREVELEVID”, the “soluble on expression in E. coli” value was “soluble”.
